We go through one molecule from patent US20250326818A1 (UNIVERSIT T BASEL, published 2025).

This assay has as its target T1, CD123 ECD E51Q (human, UniProt P26951 19-305).
T1 construct: Recombinant ECD
T1 sequence: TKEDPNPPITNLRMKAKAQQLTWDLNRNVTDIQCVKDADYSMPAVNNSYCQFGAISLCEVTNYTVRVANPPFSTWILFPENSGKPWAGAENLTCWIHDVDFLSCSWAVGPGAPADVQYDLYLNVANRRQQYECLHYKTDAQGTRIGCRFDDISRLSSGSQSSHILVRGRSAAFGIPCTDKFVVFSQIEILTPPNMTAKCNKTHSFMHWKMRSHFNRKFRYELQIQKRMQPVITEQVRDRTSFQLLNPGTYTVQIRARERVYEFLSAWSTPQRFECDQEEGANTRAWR
Kind of assay: BLI (Octet), biotinylated CD123 ECD captured on streptavidin tips, hIL3 as analyte, level at 250 s normalised to loading. The procedure: Binding of hIL3 (SinoBiological, PN: 11858-H08H) (analyte) to CD123 ECD wt. and variants (ligands) was performed using Streptavidin capture biosensor (SA) (Sartorius, PN: 18-5019). CD123 ECD wt. and variants were biotinylated using Biotinylation kit Type B (Abeam, PN: ab201796) following manufacturer instructions. Biotinylated CD123 ECD wt. and variants (ligands) were captured on SA tips for 1000 s to achieve a nm shift of 1.5 to 2 nm. Analyte hIL3 was titrated at 7 concentrations from 500 to 7.8 nM. Association to analyte was monitored for 300 s and dissociation for 120 s. Buffer only well was used as reference. No regeneration was performed, and a new set of tips was used for each biotinylated captured ligand. Data were analyzed using the Octet Data Analysis software HT 12.0. Due to the fast on/off nature of the interaction data were analyzed using Steady state analysis. Qualitative representation in FIG. 11 binding level were taken at 250 s association for all concentrations.
(In BLI a coated tip is dipped into the sample, and binding shifts an interference pattern.)

B1: hIL3 (ligand, human, UniProt P08700 20-152, looked up)
chain: APMTQTTPLKTSWVNCSNMIDEIITHLKQPPLPLLDFNNLNGEDQDILMENNLRRPNLEAFNRAVKSLQNASAIESILKNLLPCLPLATAAPTRHPIHIKDGDWNEFRRKLTFYLKTLENAQAQQTTLSLAIF
notes: also called Interleukin-3
In the case of B1, the binding result is given as “binds”.
